Laboratory results: the DeepSol protein solubility set

Assay: soluble on expression in E. coli; label from the status in PepcDB or PDB records

| Sequence | soluble on expression in E. coli |
| --- | --- |
| MNDHIHRVPALTEEEIDSVAIKTFERYALPSSSSVKRKGKGVTILWFRNDLRVLDNDALYKAWSSSDTILPVYCLDPRLFHTTHFFNFPKTGALRGGFLMECLVDLRKNLMKRGLNLLIRSGKPEEILPSLAKDFGARTVFAHKETCSEEVDVERLVNQGLKRVGNSTKLELIWGSTMYHKDDLPFDVFDLPDVYTQFRKSVEAKCSIRSSTRIPLSLGPTPSVDDWGDVPTLEKLGVEPQEVTRGMRFVGGESAGVGRVFEYFWKKDLLKVYKETRNGMLGPDYSTKFSPWLAFGCISPRFIYEEVQRYEKERVANNSTYWVLFELIWRDYFRFLSIKCGNSLFHLGGPRNVQGKWSQDQKLFESWRDAKTGYPLIDANMKELSTTGFMSNRGRQIVCSFLVRDMGLDWRMGAEWFETCLLDYDPCSNYGNWTYGAGVGNDPREDRYFSIPKQAQNYDPEGEYVAFWLQQLRRLPKEKRHWPGRLMYMDTVVPLKHGNGPMAGGSKSGGGFRGSHSGRRSRHNGP | soluble |
| FYRNHYKITYKRRLSDLFREFYLTSSRTKWQLCITLGVALVMLVSRELGLPRPMWAGFAAMSVMQPFAEDLKQRVKHRLPGTIAGGLLFLLLCRVLPE | not soluble |
| MGVVRRGSDVTSHVSSVSGKSAPCLQHFSVIRSIGRGAFGKVCIVQERKTKKYFALKYMNKRRCIEKGVAANVIRELTLLSKMSHPFIVNLWYTFQDGDYMYMVSDLLLGGDLRYHLSQQGKFAEDRAKLYLCEICLAVEYLHEMKIVHRDIKPENILLDEQGHAHLTDLNLATQLEDDQLATSYSGTRPYMAPEIYATYLEIEDGYDSRVDWWALGVCFYEMLRGRTPFEFSSRTKPEEAYVAFRESSIPYPAHWPTDLIQFINSMLKFDKEKRLVGLEAIKKHSYTERIDFKSVFEKKPSPVFIPCKEGLNCDPMYELEERILVSTPIHRRRTNHNNSSGRSSSEPQNAALVEVSKAFIDFSRHNVKIEPNGFVKLN | not soluble |
| MSGNYVINIGRQLGSGGKEIGEKLAARLGIDFYDKELINLASEESGLCKEFFEKADEKASQGIIGGLFGMRFPFISEGAMPCTNCLSNDALFKVQSDVIRRLAAEKSCVFVGRCADYILREHPRCANVFISATKEDRIARLCQMHRIDEEAAEEMIEKADKRRSEYYNYYSYKTWGAAATYHLCVDSSSLGIEETVRFVEEFVAKKLQIGM | not soluble |
| MKKKIIKKKSAAAPASKIPDDFEMPMARVADEDDVAEDYKVVDMSEIAAPIIEFEMPNLVEKSPEEFKNSEVTGEASREVSVKTPKKVTKRVRKSSKTDKTDQIPLTAEKLNNELVALRATCLTAKNQLMSRIVRQKKQLESKKSQKVDGKSKEERDRKIARLVEEILGLKTFDKDSVAKFAALNTKSLAELKINGKTEVAERLMYKLVCQSIIVEKIQSIREKYTEWNKTAAFFMQRLGQQYANKPEKKSKKSTEKKELNIENLEDLNNEDEDSENEKEEEIEENEEDYDQSDIEMLDSDEEEAGEEAAKNRRNLLLGLIGVQEDKNRPSLAPKKRKLVEEEDEEVETVKNQKKMKQIFEKELKSKEVKNPKKSNKSTKKPTKSAPIVKKVEEKKVEENEVSDDESDQKTLVMKVDLSKGGKIAKAQKFSTTAPKSAKIVAPVSEDENDDDESSSFFLPKSGVVAPRKIIPKKPSENVEKVDKRFQKGTQKKSEAVVEKKKGSSKSAVSGEMHPSWIASQLKKKELASAKPCGKKITFGDDEEE | not soluble |
| MNLRTQKFHMYFKQWIELYKEGAVRPVTYQKYQMSHKHLVTLAPDLHMDELKRRTYQELINEFAANHEKQTTLDFHHHLKAAILDALDEGILEQDPTRKVVIKGTLEHHHHHH | soluble |
| MGGKSNGEKKYIVGFKQGFKSCAKKEDVISEKGGKLQKCFKYVDAASATLNEKAVEELKKDPSVAYVEEDKLYRALSATS | soluble |
| MTKKRVALIFGGNSSEHDVSKRSAQNFYNAIEATGKYEIIVFAIAQNGFFLDTESSKKILALEDEQPIVDAFMKTVDASDPLARIHALKSAGDFDIFFPVVHGNLGEDGTLQGLFKLLDKPYVGAPLRGHAVSFDKALTKELLTVNGIRNTKYIVVDPESANNWSWDKIVAELGNIVFVKAANQGSSVGISRVTNAEEYTEALSDSFQYDYKVLIEEAVNGARELEVGVIGNDQPLVSEIGAHTVPNQGSGDGWYDYNNKFVDNSAVHFQIPAQLSPEVTKEVKQMALDAYKVLNLRGEARMDFLLDENNVPYLGEPNTLPGFTNMSLFKRLWDYSDINNAKLVDMLIDYGFEDFAQNKKLSYSFVSLGEEKIGKFN | soluble |
| MSLKITHVEVHRIDVPAASPPFRWRDGLSGSAPVGDGAVLHIGTDEGAEGVSVFARPGAYSTLRDLVDRVFRAELVGADPFQREWLWHRVWELDRIHELPLPTLGLIDIALWDLAGRYHGEPVWRLLGGFREAIPAYASTSTFSSVAEFLDVADQCLALGYRGIKLHAWGDARRDAELCLALRDHVGPDVPLMYDGSAGFDLPDAIRLGRALSEADYLWYEEPIREFSISAYQRLAEAVDVPLLVAETSDGAHMNAADFIRAGAATFGVRAGTTLRGGITGAMRTAHLADAFRLRAEVHGSDIPNHHLCMAISNTTYYESLVTSVNVVRERHVDDQGLVHAPAGPGIALPLDFGYGNELLPFVEQPREGHHHHHH | soluble |
| LYGYYCMQEEEQLVYWYSGLYLQPQHFQSIDLHHGFMLARSRQLSQPHHQGYYECCINDDLLKEDTVRVEKIKAVLSSGYYIEYPGNCVVQDKCLTNLKGSDHGTVDLWLALKRFNSGHKNVSSVNDKRGSARWISSDDERNMRNVYHDSQDADITRIKYDIQILTDEEKDNTTDYEYLPLTRIIYGNNSLCIDDECSFPVMRLSANHKLRNKIAEIYSDIKFYKNRLEKYRYTERTVSDGHLYNFLILCAINRTLPLLSSFINEDAIHPWLYYMALCQFAGEISTFHNSGLSDTRIVELSYNHYEQISCFSDLQYYIKLILDDSCRDKIISVEFRKITTDTLICNFDEYGAGSNSDYYIKLTSDTFRKNKLIALPEIKIAPSEHIDMIIQHALPGIKFTVMDAVTSDLQVRENTIWLKIDKHSELWTLAQTQKRVAFYWSCSPDDLLVELVLSQEKYAVSRPKQDNGSFHPAVGR | not soluble |
| MGSDKIHHHHHHMHYLPFIRVVMNTADEDAQMERDEWASREVMPITNWGRRPDGSEIVQYDAPMFFSFTEHSLLHQYPHMRAECHWHVDLELTYIIHGHMWYFVNGETVRLDEGQAIFVNSRQLHYGFTKDGSDCEFSCTLLNPAKMCASFEVYDRFIAPLMAENTMPYAVITDDTAPGRRLLATIRQLHAAKFGPLERSERSAEPLPADDMTLTDNTEALTVLSCFYAVVRDILAIAGSHCATSTAPHPRIVTLRKMIDYVQRYYVRPITLKQIASAGSVGRTTCASIFRESLNQSPIEFVNDVRVRAAANLLVTSSLPIATVAKQTGFSSASFFSRTFHRFMGVTPITYRTTHTKRKSEE | not soluble |
| MSLPDKFKRVHVVVMDSVGIGEAPDAAKFGDFDVDTFGHIAKHVGGLKMPEMGKLGLSNIREIEGIKKAEKPLAYYTKMQEASNGKDTMTGHWEIMGLYIDTPFRVFPDGFPDDLINQIEEKTGRKVIGNKPASGTEIMAELGEEHVKTGALIVYTSADSVLQIAAHEDVVPLEELYEICEFCRKITLDDPYMLGRIIARPFVGEPGAFVRTPNRHDYALKPFKPTVMDALKDGGKDVIAIGKISDIFDGEGVTESIRTKSNMDGMDQFIAVLDKDFNGMSFLNLVDFDALFGHRRDPQGYADALVDFDGRLVEVMEKLTDDDLLIITADHGNDPTYTGTDHTREFVPLLVYSPRFKNGGSELELRKTFADLGATVADNFDVKMPEYGTSFLRDLKEGHHHHHH | not soluble |
| APQGINQFALLLNKQDTLTEFDTLVPGRFQAMRDGTRVTYTEELSKDRGELAGIFISQKDLNSSNQERGISILVAEKGTQNIQADGSRYLILHNGYRYDGNPGQANYRAIQYDTYGVMLPKPEASSEVSERDAVPTADLFGSDNPRYQAELQWR | not soluble |
| MGGSVAAQDEFYRSGWALNMKELKLLQTIGKGEFGDVMLGDYRGNKVAVKCIKNDATAQAFLAEASVMTQLRHSNLVQLLGVIVEEKGGLYIVTEYMAKGSLVDYLRSRGRSVLGGDCLLKFSLDVCEAMEYLEGNNFVHRDLAARNVLVSEDNVAKVSDFGLTKEASSTQDTGKLPVKWTAPEALREKKFSTKSDVWSFGILLWEIYSFGRVPYPRIPLKDVVPRVEKGYKMDAPDGCPPAVYEVMKNCWHLDAAMRPSFLQLREQLEHIKTHELHL | soluble |
| MSLETTVITADRMIDVANGKVVKQAAVIVTDNIITASGRLKDLTVPNEATRIDLGNATLMPGLMDMHVHLTSDATRHGYKRLEVSLPRAAITGVKHAKATLDAGFTTVRNVGAPGFADVALRDAINAGDVVGPRMFVAGPSLGVTGGHCDSNLLPYEYDNYSEGVADGPWEVRKKVRRNIKYGATVIKFCATGGVLSKGTKVGAQQYTFEEMKALIDEAHLRGLTVATHAHGTNGIKAAIKASVDSVEHVSLLDDEAIDLAKKNGTYFSMDIYVTEYILGEGEKAGILEESLNKERIVGKTQRENFEKAVKAGVNMVFGSDAEGHHHHHH | soluble |
| DAPAVGKDLTQAAENIPPAFHNAPRQGELPALNYVNQPPMVPHSVANYQVTKNVNQCLNCHSPENSRLSGATRISPTHFMDRDGKVGSSSSPRRYFCLQCHVSQANVDPIVPNDFKPMKGYGN | soluble |
| MAHHHHHHMEKQCPVCYFNLPDPESAIAPYDTELNYFMWGPGFEWQPEPEVKNILVEEENFEESEQSEESVAGLEELDEKVDRSEAKTMFNEKSSNGKVSVEDASQNARKLGLAPSSLDEKKVRDLYGDSLTYEQYLEYLAMCVHDRDNMEELIKMFSHFDNNASGFLTKNQMRNILTTWGDALTEQEANDALNAFSSEDRIDYKLFCEDILQ | not soluble |
| MANAFKLFPTRDTNYLEATYVHHDLNVVWLKLSFRVPLETLFLEYRQQGGHTLILSRQVYENILVRDTDFMSVFCNDLQAILEDSPAIERFFVELSPYYWGKEDFDKRMSAWSQSVQLYDWLVTFLDDRQEELKLKLVSLCEFTSLQILSIIRLISSNYLETIKLTFRKNDEQLESNFQEILKTKQWNNAKAAYVKGCCTPIASILHFQKATVQLDILSIDDLRVLKELATKGTLNIFKIRFHSIADSITDNSLIELFGESKHSFLWEWSINGIDNREIECIYSKTYKEFSIFYSEEYQKLGHGVPENNKSEETTLCTSEHSSKVLQNALLMKNILNHLERKDICRLQRTSRKIHESIANLKPDSKIVALEISLVKIECVTVNVFHKMGVKKLIYENVGLSNVDPTAKLITAMERHNQGVFGEEICFAHGRWQLGFSLSAFAVDLIRNLKDQKSEIQELWLDFSLTQARLRERPDKEHIKILVLATRQLLDVISSAGKTLDRQIPVKKLSIQALGHKPLLQILPLLNPVTLKTIEIQKSEVIMAKKPLNLNKVVQLDQWKNAEEVLIKSITAPGQIQHFLHFVVAEVNLESISMGDVLELKNVFQQNSNKLKKFKAFFENSDIDERIYDDQFLGFPYKRPENPSTNLPSVWFVRIPTSTVLHILYYKNRKMISFSRVSNSSVPSDALM | not soluble |
| MKTVLLTGFDPFGGESINPAWEVAKSLHEKTIGEYKIISKQVPTVFHKSISVLKEYIEELAPEFIICIGQAGGRPDITIERVAINIDDARIADNEGNQPVDVPVVEEGPAAYWSTLPMKAIVKKLQEEGIPASVSQTAGTFVCNHLFYGLMHELEKHDTKMKGGFIHIPFLPEQASNYPGQPSMSLSTIRKGIELAVEVTTTVEVDIVEVGGTTH | soluble |
